The record followed here is article PMC3328385 (The Journal of Cell Biology, 2012).

Data set [1] addresses t-SNAREs: syntaxin-1A/SNAP-25B, coexpressed, reconstituted in liposomes or supported bilayers (rat | mouse, UniProt P32851;P60879). Kind of data set: liposome coflotation.
The data set “native gel or EMSA” concerns the molecule itself. Description: native gel or EMSA.

Numbering of substitutions follows the chain as printed. Names and notes keep the numbering of the source.

t-SNAREs: syntaxin-1A/SNAP-25B, coexpressed, reconstituted in liposomes or supported bilayers, sequence (P32851 whole entry, chain 1 of 2): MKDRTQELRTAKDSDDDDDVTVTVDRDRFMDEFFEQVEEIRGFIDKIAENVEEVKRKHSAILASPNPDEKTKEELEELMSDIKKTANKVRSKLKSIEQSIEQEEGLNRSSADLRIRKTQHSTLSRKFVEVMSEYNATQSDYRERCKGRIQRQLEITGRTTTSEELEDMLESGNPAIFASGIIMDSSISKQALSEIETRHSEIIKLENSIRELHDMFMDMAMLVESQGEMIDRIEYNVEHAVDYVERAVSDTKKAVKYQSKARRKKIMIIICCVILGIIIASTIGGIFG
t-SNAREs: syntaxin-1A/SNAP-25B, coexpressed, reconstituted in liposomes or supported bilayers, sequence (P60879 whole entry, chain 2 of 2): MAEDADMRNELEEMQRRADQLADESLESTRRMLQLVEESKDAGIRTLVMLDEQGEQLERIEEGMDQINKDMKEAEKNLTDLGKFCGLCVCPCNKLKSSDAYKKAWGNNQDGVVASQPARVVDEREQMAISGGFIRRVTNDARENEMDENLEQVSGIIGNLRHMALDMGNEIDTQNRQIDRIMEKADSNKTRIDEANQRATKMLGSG

B1: Munc13-4 (wild type, His6-tagged human Munc13-4) (natural protein)
chain: MATLLSHPQQRPPFLRQAIKIRRRRVRDLQDPPPQMAPEIQPPSHHFSPEQRALLYEDALYTVLHRLGHPEPNHVTEASELLRYLQEAFHVEPEEHQQTLQRVRELEKPIFCLKATVKQAKGILGKDVSGFSDPYCLLGIEQGVGVPGGSPGSRHRQKAVVRHTIPEEETHRTQVITQTLNPVWDETFILEFEDITNASFHLDMWDLDTVESVRQKLGELTDLHGLRRIFKEARKDKGQDDFLGNVVLRLQDLRCREDQWYPLEPRTETYPDRGQCHLQFQLIHKRRATSASRSQPSYTVHLHLLQQLVSHEVTQHEAGSTSWDGSLSPQAATVLFLHATQKDLSDFHQSMAQWLAYSRLYQSLEFPSSCLLHPITSIEYQWIQGRLKAEQQEELAASFSSLLTYGLSLIRRFRSVFPLSVSDSPARLQSLLRVLVQMCKMKAFGELCPNTAPLPQLVTEALQTGTTEWFHLKQQHHQPMVQGIPEAGKALLGLVQDVIGDLHQCQRTWDKIFHNTLKIHLFSMAFRELQWLVAKRVQDHTTVVGDVVSPEMGESLFQLYISLKELCQLRMSSSERDGVLALDNFHRWFQPAIPSWLQKTYNEALARVQRAVQMDELVPLGELTKHSTSAVDLSTCFAQISHTARQLDWPDPEEAFMITVKFVEDTCRLALVYCSLIKARARELSSGQKDQGQAANMLCVVVNDMEQLRLVIGKLPAQLAWEALEQRVGAVLEQGQLQNTLHAQLQSALAGLGHEIRTGVRTLAEQLEVGIAKHIQKLVGVRESVLPEDAILPLMKFLEVELCYMNTNLVQENFSSLLTLLWTHTLTVLVEAAASQRSSSLASNRLKIALQNLEICFHAEGCGLPPKALHTATFQALQRDLELQAASSRELIRKYFCSRIQQQAETTSEELGAVTVKASYRASEQKLRVELLSASSLLPLDSNGSSDPFVQLTLEPRHEFPELAARETQKHKKDLHPLFDETFEFLVPAEPCRKAGACLLLTVLDYDTLGADDLEGEAFLPLREVPGLSGSEEPGEVPQTRLPLTYPAPNGDPILQLLEGRKGDREAQVFVRLRRHRAKQASQHALRPAP
As to B1, in data set [1], the “fold increase in binding with Ca2+ against no Ca2+” value was determined as 2.5 fold.

B2: C2A* Munc13-4 (D127N/D133N) (natural protein)
chain: B1 chain with D127N, D133N
As to B2, the binding result (in the data set “native gel or EMSA”; in data set [1]) was “binds” throughout.

B3: C2A*B* Munc13-4 (D127N/D133N/D941N/D947N) (natural protein)
chain: B1 chain with D127N, D133N, D941N, D947N
In the case of B3, the binding result (in the data set “native gel or EMSA”; in data set [1]) was “binds” throughout.

B4: C2B* Munc13-4 (D941N/D947N) (natural protein)
chain: B1 chain with D941N, D947N
As for B4, the binding result (in the data set “native gel or EMSA”; in data set [1]) was “binds” each time.
